Reference: the RNAGym collection of RNA variant scans (doi:10.1073/pnas.2313332121)

B1: TPR t1 (parent)
chain: GACCAAUCUGCCCUCAGAGCUCGAGAACAUCUUCGGAUGCAGAGGAGGCAGGCUUCGGUGGCGCGAUAGCGCCAACGUCCUCAACCUCCAAUGCAUCCCACCACAUGAUGAUGCCUGAAGAGCCUUGGUUUUUUG

Variants of: B1
Assay: polymerase ribozyme fitness, log enrichment relative to wild type (log ratio); higher = more active; in vitro selection for triplet polymerase activity
In short: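 A single round of triplicate in vitro selection, including frozen incubation at −7 °C, was applied to PCR-built, transcribed mutant libraries of each subunit of a heterodimeric triplet polymerase ribozyme. Illumina sequencing of input and output libraries retained genotypes with ≥10 input reads and ≥1 read per output. Fitness is the base-2 logarithm of genotype enrichment divided by wild-type enrichment, from inverse-variance-weighted replicate averages.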

| Variant | polymerase ribozyme fitness (log ratio) |
| --- | --- |
| G39C A90G | 0.876 |
| G39U G52U G61U C102U | -4.31 |
| U38C G117U G120A | -2.23 |
| G39A A46U C64U | -2.95 |
| A37U G113U | -3.11 |
| G39U G52U A95U U109G | -6.38 |
| G39U C88A | -2.37 |
| G39U C88U | -0.766 |
| U38G U55C G61A A91C A108C G110U C124A U126C | -6.93 |
| A37U G110U | -1.34 |
| U38G A50G U81C G113A | -1.89 |
| G39C G71A | -1.21 |
| U38G C64U A66C A90U A91C U132A | -3.61 |
| U38G A46C C101U | -2.55 |
| U38A C82A C114A G120C A121C U132C | -3.34 |
| G39U G42C | -2.2 |
| G39C C97U G120C | 0.357 |
| U38G C56G G57C G77U | -1.18 |
| G39U G48A C70U | -1.15 |
| U38G A111C | -0.398 |
| G39C A41U C72U A74U G113U C114U A121G | -1.73 |

| Variant | polymerase ribozyme fitness (log ratio) |
| --- | --- |
| U38A G48U C49A U87A C115A | -3.9 |
| U38A G39U C82G U130A | -3.44 |
| G39C G69A | -3.44 |
| G39C C53G C124U G128U | -0.975 |
| G39U A91U U126G G128U | -3.6 |
| G39A C89G A90C | -2.4 |
| U38G C80U C86U | -1.86 |
| G39A A84C | -1.2 |
| G39A C40U | -1.56 |
| U38G A95C | 0.185 |
| G39A G42U C49A G52A | -4.68 |
| U38A A46U | -2.42 |
| U38C C101U | -1.08 |
| G39A A75U G110C | -5.51 |
| G39U C70G G122A | -3.94 |
| U38A C53G C56U G110A | -2.64 |
| G39C C53G G107C A121U | -4.92 |
| U38A C102U A111G U112A U126G U129C | -6.23 |
| U38G G69U C98A | -4.75 |
| A37U G117C G122U | -5.5 |
| U38C G63U G77C U131G | -3.41 |

| Variant | polymerase ribozyme fitness (log ratio) |
| --- | --- |
| G39U A50C | -1.21 |
| U38A G42U U59A C88G A95U C114A | -4.56 |
| G39C U112A | 0.828 |
| U38G G69C C86U C115A | -3.28 |
| U38G C79U C97U | -5.59 |
| G39C C76U U126G | -2.72 |
| G39A A119U | -0.287 |
| U38A G57A G63A | -4.08 |
| G39C G48U A75U | -1.28 |
| G39A C86G | -1.11 |
| U38A A50U C123G U133A | -0.425 |
| U38A G61C | -2.48 |
| G39A A46U U87A U106A | 0.825 |
| U38C C123A | -0.222 |
| G39U G51U | -4.93 |
| U38G C124U | 0.564 |
| G39U C70U G117C G128A | -5.92 |
| G39A A43U C86G | -1.99 |
| U38C A43U C86A | -2.82 |
| U38C C40U C56G U78A G113A | -3.17 |
| G39A C70U A118G G122A | -0.719 |

| Variant | polymerase ribozyme fitness (log ratio) |
| --- | --- |
| U38C G110U G135U | -3.96 |
| G39A G51U U78A | -4.54 |
| U38A G58C C70U C115A | -1.72 |
| G39U G58A | 0.844 |
| G39A C56G | -1.24 |
| U38G U54C C56U G61U A111U | -5.38 |
| G39C | -0.776 |
| G39A | -0.485 |
| G39U | -0.799 |
| U38G C62G C86A C124A | -2.75 |
| G39C C89A C99U U106A A111G | -6 |
| U38A G93U C123U | -3.41 |
| U38G C64U | -1.09 |
| G39C C56G C72U | -1.49 |
| G39C U112A A121U | 1.84 |
| G39C C70U U112G | -2.08 |
| U38G C70U C80U G120C | -1.36 |
| G39C C115A | -1.12 |
| G39A G61U A100C C123A | -1.14 |
| U38A A90U | -2.22 |
